According to US20030198640A1 (Human Genome Sciences, published 2003):

Experiments:
Test in all cases: flow cytometry on transiently transfected cells
[1] = molecular target: T1, 4-1BB on transiently transfected cells (UniProt Q07011 24-255)
T1 construct: whole, on cells
Method: (§1) One million cells, in 0.1 ml of FACS buffer (PBS, 0.1% BSA, 0.1% NaN₃), were incubated with 0.1-1 microgram of protein or antibody at RT for 15 min. The cells were washed with 3 ml of FACS buffer, reacted with biotinylated primary antibody, and stained with PE-conjugated secondary antibody at RT for 15 min. Cells were then washed again, resuspended in 0.5 microgram/ml of propidium iodide, and live cells were gated and analyzed on a FACScan using the CellQuest software (BD Biosciences).

[2] = molecular target: T2, DR4 on transiently transfected cells (UniProt O00220 24-468, limits assumed)
T2 construct: whole, on cells
T2 sequence (looked up): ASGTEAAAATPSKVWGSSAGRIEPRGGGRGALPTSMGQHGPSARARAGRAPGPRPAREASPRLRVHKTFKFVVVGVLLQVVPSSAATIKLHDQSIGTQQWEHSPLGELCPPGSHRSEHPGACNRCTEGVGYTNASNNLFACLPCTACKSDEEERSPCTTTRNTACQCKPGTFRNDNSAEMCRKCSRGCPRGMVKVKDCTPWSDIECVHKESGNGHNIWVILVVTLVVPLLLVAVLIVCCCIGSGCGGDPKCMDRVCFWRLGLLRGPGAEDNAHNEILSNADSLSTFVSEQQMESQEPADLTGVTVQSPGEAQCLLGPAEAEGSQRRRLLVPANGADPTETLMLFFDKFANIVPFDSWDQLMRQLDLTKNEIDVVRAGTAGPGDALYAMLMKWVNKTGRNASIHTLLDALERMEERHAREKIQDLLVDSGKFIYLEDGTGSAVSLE
Method: as §1

[3] = molecular target: T3, AITR on transiently transfected cells (UniProt Q9Y5U5 26-241, limits assumed)
T3 construct: whole, on cells
T3 sequence (looked up): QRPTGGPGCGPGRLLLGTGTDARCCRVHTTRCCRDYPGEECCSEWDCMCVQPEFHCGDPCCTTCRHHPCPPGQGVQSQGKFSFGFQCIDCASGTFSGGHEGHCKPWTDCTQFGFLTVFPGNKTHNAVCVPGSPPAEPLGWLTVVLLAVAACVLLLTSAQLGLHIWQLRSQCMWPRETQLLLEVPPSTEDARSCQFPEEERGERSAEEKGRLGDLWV
Method: as §1

[4] = molecular target: T4, HveA on transiently transfected cells (UniProt Q92956 39-283, limits assumed)
T4 construct: whole, on cells
T4 sequence (looked up): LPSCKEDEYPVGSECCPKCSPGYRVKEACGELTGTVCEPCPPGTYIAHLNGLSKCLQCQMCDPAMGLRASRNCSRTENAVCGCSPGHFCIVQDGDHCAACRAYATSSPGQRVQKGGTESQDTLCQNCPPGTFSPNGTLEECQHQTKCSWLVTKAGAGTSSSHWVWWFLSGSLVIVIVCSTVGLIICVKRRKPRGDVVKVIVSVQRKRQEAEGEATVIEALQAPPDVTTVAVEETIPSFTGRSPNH
Method: as §1

[5] = molecular target: T5, DcR1 on transiently transfected cells (UniProt O14798 26-236, limits assumed)
T5 construct: whole, on cells
T5 sequence (looked up): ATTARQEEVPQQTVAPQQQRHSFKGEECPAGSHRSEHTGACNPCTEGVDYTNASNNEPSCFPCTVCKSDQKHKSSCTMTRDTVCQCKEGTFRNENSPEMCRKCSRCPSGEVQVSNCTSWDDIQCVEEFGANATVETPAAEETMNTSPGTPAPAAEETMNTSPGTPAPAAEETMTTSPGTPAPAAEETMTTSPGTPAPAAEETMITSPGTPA
Method: as §1

[6] = molecular target: T6, DR6 on transiently transfected cells (UniProt O75509 42-655, limits assumed)
T6 construct: whole, on cells
T6 sequence (looked up): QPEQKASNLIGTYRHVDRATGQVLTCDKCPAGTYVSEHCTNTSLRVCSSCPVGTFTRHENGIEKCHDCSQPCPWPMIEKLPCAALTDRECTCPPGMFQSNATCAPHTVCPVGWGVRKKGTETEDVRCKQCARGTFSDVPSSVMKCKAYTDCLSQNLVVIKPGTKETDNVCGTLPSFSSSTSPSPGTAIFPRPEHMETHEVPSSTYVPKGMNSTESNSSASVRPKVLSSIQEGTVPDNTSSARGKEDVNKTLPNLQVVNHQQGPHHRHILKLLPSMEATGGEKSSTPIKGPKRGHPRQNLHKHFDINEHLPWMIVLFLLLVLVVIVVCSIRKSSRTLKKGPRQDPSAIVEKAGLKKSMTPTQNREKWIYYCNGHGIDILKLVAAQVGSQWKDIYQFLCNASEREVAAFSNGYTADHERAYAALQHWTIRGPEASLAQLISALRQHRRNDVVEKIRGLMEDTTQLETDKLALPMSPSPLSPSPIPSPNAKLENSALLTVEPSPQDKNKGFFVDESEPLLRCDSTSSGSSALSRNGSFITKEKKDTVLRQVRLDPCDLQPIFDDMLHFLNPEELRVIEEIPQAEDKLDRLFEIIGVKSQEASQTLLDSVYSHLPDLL
Method: as §1

[7] = molecular target: T7, BCMA on transiently transfected cells (UniProt Q02223 1-184, limits assumed)
T7 construct: whole, on cells
T7 sequence (looked up): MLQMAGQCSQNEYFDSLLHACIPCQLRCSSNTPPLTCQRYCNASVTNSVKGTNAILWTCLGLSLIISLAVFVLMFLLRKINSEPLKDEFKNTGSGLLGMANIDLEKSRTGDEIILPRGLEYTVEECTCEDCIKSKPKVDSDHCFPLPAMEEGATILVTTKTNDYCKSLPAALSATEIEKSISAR
Method: as §1

[8] = molecular target: T8, TNFR2 on transiently transfected cells (UniProt P20333 23-461, limits assumed)
T8 construct: whole, on cells
T8 sequence (looked up): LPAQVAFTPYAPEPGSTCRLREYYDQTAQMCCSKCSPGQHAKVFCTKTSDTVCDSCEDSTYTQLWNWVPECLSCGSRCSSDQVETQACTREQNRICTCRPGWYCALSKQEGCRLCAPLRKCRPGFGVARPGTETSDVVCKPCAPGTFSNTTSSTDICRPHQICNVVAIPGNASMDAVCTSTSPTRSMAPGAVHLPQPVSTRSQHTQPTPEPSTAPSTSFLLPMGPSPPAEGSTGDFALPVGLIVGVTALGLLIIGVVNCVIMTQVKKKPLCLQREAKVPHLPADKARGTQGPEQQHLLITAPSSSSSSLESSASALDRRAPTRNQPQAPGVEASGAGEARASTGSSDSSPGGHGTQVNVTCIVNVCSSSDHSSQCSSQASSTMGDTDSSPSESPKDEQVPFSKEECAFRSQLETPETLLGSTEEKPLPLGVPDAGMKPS
Method: as §1

Measured: binding result

T1 sequence (Q07011 24-255): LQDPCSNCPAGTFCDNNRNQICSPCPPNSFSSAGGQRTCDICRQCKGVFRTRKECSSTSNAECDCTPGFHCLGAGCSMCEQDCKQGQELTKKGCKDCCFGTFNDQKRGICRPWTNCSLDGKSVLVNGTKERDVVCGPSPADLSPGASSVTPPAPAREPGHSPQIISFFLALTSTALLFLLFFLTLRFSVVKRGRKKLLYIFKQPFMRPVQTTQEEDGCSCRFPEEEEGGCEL

B1: FLAG-tagged soluble form of TNF-gamma-beta (aa 72-251) (ligand)
chain: LKGQEFAPSHQQVYAPLRADGDKPRAHLTVVRQTPTQHFKNQFPALHWEHELGLAFTKNRMNYTNKFLLIPESGDYFIYSQVTFRGMTSECSEIRQAGRPNKPDSITVVITKVTDSYPEPTQLLMGTKSVCEVGSNWFQPIYLGAMFSLQEGDKLMVNVSDISLVDYTKEDKTFFGAFLL
notes: also called FLAG-TL1β; FLAG-TNF-gamma-beta; not shown: FLAG tag of the pFLAG-CMV-1 vector at the amino terminus
no binding: all assays above
